The experiment has as its target Secretory leukoproteinase inhibitor (human (endogenous in A549)) (UniProt P03973).
UniProt P03973, sequence (P03973 26-132): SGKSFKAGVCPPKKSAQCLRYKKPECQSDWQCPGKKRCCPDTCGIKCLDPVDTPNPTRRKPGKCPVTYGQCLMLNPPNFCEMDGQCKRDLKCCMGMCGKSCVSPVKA

“neutrophil elastase (from UniProt P08246 30-267) (enzyme)”: the SLPI concentration (ELISA) in the lower Transwell compartment of A549 cells, 10 min after 10 nM NE was added to the lower compartment only, as % of control wells is 8.6 % of control and the SLPI concentration (ELISA) in the upper Transwell compartment of A549 cells, 10 min after 10 nM NE was added to the upper compartment only, as % of control wells was 10.6 % of control.

Values taken from paper PMC2529288.
